Source: the supplement of paper PMC9233669
Variants at the floor of the assay were thinned out.

Key:
[1] = tested on: biotinyl-Met-oxazolone; assay: self-aminoacylation, catalytic enhancement (BMO) (fold over background); higher = more active; k-Seq, kA / k0A0; sequences stand for … in GGGAAUGGAUCCACAUCUACGAAUUC…UUCACUGCAGACUUGACGAAGCUG
Procedure, shortened: (§1)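 Mutagenized RNA pools with a 21-nt variable region (0.43 μM) reacted with each biotinyl-aminoacyl-oxazolone at 2–1250 μM. Reactions ran in 50 μL HEPES/NaCl/KCl/MgCl2/CaCl2 buffer with 5% acetonitrile, pH 6.9–7.0, for 90 minutes at room temperature. Streptavidin-captured RNA was quantified by triplicate qPCR and Illumina sequencing, and per-sequence fraction reacted was fit to a pseudo-first-order model with 1000 bootstraps. Catalytic enhancement is median kA divided by the uncatalyzed rate, the low-activity peak of a bimodal Gaussian fit.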

[2] = tested on: biotinyl-Val-oxazolone; assay: self-aminoacylation, catalytic enhancement (BVO) (fold over background); higher = more active; k-Seq, kA / k0A0; sequences stand for … in GGGAAUGGAUCCACAUCUACGAAUUC…UUCACUGCAGACUUGACGAAGCUG
Procedure, shortened: as §1

[3] = tested on: biotinyl-Trp-oxazolone; assay: self-aminoacylation, catalytic enhancement (BWO) (fold over background); higher = more active; k-Seq, kA / k0A0; sequences stand for … in GGGAAUGGAUCCACAUCUACGAAUUC…UUCACUGCAGACUUGACGAAGCUG
Procedure, shortened: as §1

[4] = tested on: biotinyl-Leu-oxazolone; assay: self-aminoacylation, catalytic enhancement (BLO) (fold over background); higher = more active; k-Seq, kA / k0A0; sequences stand for … in GGGAAUGGAUCCACAUCUACGAAUUC…UUCACUGCAGACUUGACGAAGCUG
Procedure, shortened: as §1

[5] = tested on: biotinyl-Ile-oxazolone; assay: self-aminoacylation, catalytic enhancement (BIO) (fold over background); higher = more active; k-Seq, kA / k0A0; sequences stand for … in GGGAAUGGAUCCACAUCUACGAAUUC…UUCACUGCAGACUUGACGAAGCUG
Procedure, shortened: as §1

[6] = tested on: biotinyl-Phe-oxazolone; assay: self-aminoacylation, catalytic enhancement (BFO) (fold over background); higher = more active; k-Seq, kA / k0A0; sequences stand for … in GGGAAUGGAUCCACAUCUACGAAUUC…UUCACUGCAGACUUGACGAAGCUG
Procedure, shortened: as §1

Sequence	self-aminoacylation [1]	self-aminoacylation [2]	self-aminoacylation [3]	self-aminoacylation [4]	self-aminoacylation [5]	self-aminoacylation [6]
CCACACUUCAAACAAUCGGUU [Fam1B.1 aminoacylation ribozyme variant]	1.93	2.17	21.5	2.57	1.91	29.6
AUUCACCUUGGUCAUCGCGUG [Fam2.2 aminoacylation ribozyme variant]	15.3	8.42	14.1	18.2	8.37	117
CUACUUCAAACAGUCGGCCUG [Fam1A.1 aminoacylation ribozyme variant]	1.77	1.71	1.39	1.78	1.63	2.1
CCACACUUCAAACAAUUGGUC [Fam1B.1 aminoacylation ribozyme variant]	0.659	0.59	1	0.588	0.737	1.55
AUGACCCUGUUCAUCGAGUGA [Fam2.1 aminoacylation ribozyme variant]	4.75	3.03	6.05	5.72	3.16	17.7
AUUAGCCUGGUCAUCGAGUAA [Fam2.1 aminoacylation ribozyme variant]	1.31	1.51	0.949	1.57	1.52	1.85
AUUCACCUGGGUCAUUGGGUG [Fam2.2 aminoacylation ribozyme variant]	4.52	4.03	4.15	6.07	3.51	31.1
AUUCACCUACGUCAUCGGGUA [Fam2.2 aminoacylation ribozyme variant]	1.94	1.61	2.18	1.96	1.58	0.967
ACUCACCUAGGUCAUCGGGGG [Fam2.2 aminoacylation ribozyme variant]	3.42	3.19	4.06	3.57	3.75	22.1
CUACUUCAAACAUGCGGUCUG [Fam1A.1 aminoacylation ribozyme variant]	1.39	1.34	0.769	1.61	1.27	3.21
AUUCACCUAGAUGAUCGGGUG [Fam2.2 aminoacylation ribozyme variant]	2.77	2.62	3.34	2.71	2.32	13.7
UUCCACCUAGGUCAUCGGGUG [Fam2.2 aminoacylation ribozyme variant]	7.25	5.42	7.67	7.41	5.71	48.6
AACUUUGCCAAUAGUCGCAAG [Fam3.1 aminoacylation ribozyme variant]	2.79	2.64	3.85	2.81	2.62	14.7
AAUACCCUGGUCUUCGAGUGA [Fam2.1 aminoacylation ribozyme variant]	3.34	2.32	4.72	3.26	2.2	12.6
CUAGUUCAAACAAUCGGUCUA [Fam1A.1 aminoacylation ribozyme variant]	0.777	0.759	1.43	0.647	0.813	2.81
AUUACCGUGGUCGUCGAGUGA [Fam2.1 aminoacylation ribozyme variant]	1.09	1.06	0.591	1.18	1.2	2.81
AACUUUGCUAAUAGUCGCGAG [Fam3.1 aminoacylation ribozyme variant]	2.99	2.76	3.11	3.74	3.52	19.5
AUUCACGUAGAUCAUCGGGUG [Fam2.2 aminoacylation ribozyme variant]	5.1	3.9	4.96	5.42	4.08	29.6
GUUACCCUGGUCAUCGAGUGU [Fam2.1 aminoacylation ribozyme variant]	111	37.1	102	114	31.5	825
AUUACCCUGUUCAUCGAGCGA [Fam2.1 aminoacylation ribozyme variant]	1.35	1.33	1.08	1.36	1.2	1.13
CCACAGUUAAAGCAAUCGGUC [Fam1B.1 aminoacylation ribozyme variant]	0.836	0.98	0.869	0.963	0.832	0.915

Sequence	self-aminoacylation [1]	self-aminoacylation [2]	self-aminoacylation [3]	self-aminoacylation [4]	self-aminoacylation [5]	self-aminoacylation [6]
AUUGACCAAGGUCAUCGGGUG [Fam2.2 aminoacylation ribozyme variant]	6.04	3.9	6.06	7.01	4.36	45.5
AUCAACCUAGGUCAUCGGGUG [Fam2.2 aminoacylation ribozyme variant]	7.11	5.02	7.85	10.2	4.88	36.3
AUACACCUAGUUCAUCGGGUG [Fam2.2 aminoacylation ribozyme variant]	1.73	2.19	3.48	1.78	2.33	4.89
AAGUUUCCUCAUAGUCGCAAG [Fam3.1 aminoacylation ribozyme variant]	1.39	2.08	1.84	2	2.1	3.38
ACUCACCUAGGUCAUCGGGCG [Fam2.2 aminoacylation ribozyme variant]	2.66	2.63	2.63	3.85	3.12	2.07
AAGUUUGCUUAUAGUCGCACG [Fam3.1 aminoacylation ribozyme variant]	0.961	0.855	0.924	0.932	0.815	1.27
CGACACUUCAAGCAAUCGCUC [Fam1B.1 aminoacylation ribozyme variant]	1.64	1.96	2.2	2.26	2.1	2.06
CUAAUUCAAAAAAUCGGUCUG [Fam1A.1 aminoacylation ribozyme variant]	0.636	0.668	1.18	0.727	0.751	1.9
AUUCACCUCGGUCAUGGGGUG [Fam2.2 aminoacylation ribozyme variant]	3.94	2.96	4.7	4.31	2.57	28
AUUACCCUCGUCAUCAAGUGA [Fam2.1 aminoacylation ribozyme variant]	2.96	2.19	4.2	2.87	1.92	6.71
AUUCACCUAGGACAUCGGGUG [Fam2.2 aminoacylation ribozyme variant]	3.19	2.6	3.1	3.89	2.55	18.8
CCACACGUCAAGCAAGCGGUC [Fam1B.1 aminoacylation ribozyme variant]	1.24	1.57	0.697	1.19	0.826	0.494
CUACUUCAAACAAUUCGUCUG [Fam1A.1 aminoacylation ribozyme variant]	0.722	0.859	0.602	0.628	0.827	0.738
AUUCACCUAGGUCAUCGUCUG [Fam2.2 aminoacylation ribozyme variant]	0.67	0.718	0.376	0.717	0.663	0.312
AUUCAGCUAGGUCUUCGGGUG [Fam2.2 aminoacylation ribozyme variant]	5.01	4.24	4.96	5.34	4.2	36.2
AUUCACCCAGGUCAUGGGGUG [Fam2.2 aminoacylation ribozyme variant]	10.2	5.23	8.21	13.8	5.18	67.1
CCACACUUCAAGUAAUCGGAC [Fam1B.1 aminoacylation ribozyme variant]	0.826	0.907	1.05	0.696	0.743	0.783
AUUACCCUCGUCAUAGAGUGA [Fam2.1 aminoacylation ribozyme variant]	4.53	2.72	4.65	4.19	2.43	11.5
CUACUUAAAACAAUCGGUGUG [Fam1A.1 aminoacylation ribozyme variant]	0.72	0.684	1.17	0.96	0.596	0.821
CUGCUUCAAAGAAUCGGUCUG [Fam1A.1 aminoacylation ribozyme variant]	1.19	0.891	11.7	1.39	1.04	14.5
AUCACCAUGGUCAUCGAGUGA [Fam2.1 aminoacylation ribozyme variant]	10.3	5.56	13.2	11.7	5.49	58.9
